Source: patent US20220106400A1 (Bristol-Myers Squibb, published 2022)

T1: human CD73 on human tumor cell lines (human, UniProt P21589 27-549)
T1 sequence (looked up): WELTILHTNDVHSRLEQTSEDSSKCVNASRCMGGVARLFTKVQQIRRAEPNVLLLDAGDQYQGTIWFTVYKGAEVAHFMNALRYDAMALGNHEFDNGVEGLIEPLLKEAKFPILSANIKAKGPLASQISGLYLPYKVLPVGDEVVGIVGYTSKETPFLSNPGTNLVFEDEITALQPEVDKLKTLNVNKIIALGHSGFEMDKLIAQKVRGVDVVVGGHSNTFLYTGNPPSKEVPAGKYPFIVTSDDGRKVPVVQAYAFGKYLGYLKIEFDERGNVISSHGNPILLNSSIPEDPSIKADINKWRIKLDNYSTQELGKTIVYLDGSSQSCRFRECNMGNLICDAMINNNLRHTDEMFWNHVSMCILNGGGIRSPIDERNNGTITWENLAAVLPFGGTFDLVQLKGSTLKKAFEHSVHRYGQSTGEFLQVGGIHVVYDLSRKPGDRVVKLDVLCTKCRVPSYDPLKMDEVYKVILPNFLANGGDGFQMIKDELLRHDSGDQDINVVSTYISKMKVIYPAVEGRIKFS

T2: full length extracellular domain of human-CD73 with C-terminal polyhistidine tag (residues 26-546) (human, UniProt P21589 26-546)
T2 construct: range 26-546; also called hCD73-his; CD73-his
T2 sequence (looked up): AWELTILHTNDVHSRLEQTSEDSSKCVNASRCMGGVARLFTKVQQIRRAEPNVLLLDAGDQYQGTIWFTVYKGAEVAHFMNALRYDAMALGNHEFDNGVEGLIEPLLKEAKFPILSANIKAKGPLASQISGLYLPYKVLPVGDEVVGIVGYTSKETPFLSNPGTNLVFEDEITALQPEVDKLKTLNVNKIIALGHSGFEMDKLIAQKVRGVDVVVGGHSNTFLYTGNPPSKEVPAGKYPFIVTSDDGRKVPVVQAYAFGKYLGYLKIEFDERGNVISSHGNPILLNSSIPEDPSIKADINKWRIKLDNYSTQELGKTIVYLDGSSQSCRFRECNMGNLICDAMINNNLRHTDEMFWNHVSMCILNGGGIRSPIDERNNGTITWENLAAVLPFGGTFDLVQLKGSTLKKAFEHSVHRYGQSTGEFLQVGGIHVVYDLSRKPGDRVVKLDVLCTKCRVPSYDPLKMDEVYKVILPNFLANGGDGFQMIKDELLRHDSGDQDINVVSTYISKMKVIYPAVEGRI

B1: CD73.4-IgG2.5G1.1f-KH (antibody)
heavy: QVQLVESGGGVVQPGRSLRLSCAASGFTFSNYGMHWVRQAPGKGLEWVAVILYDGSNKYYPDSVKGRFTISRDNSKNTLYLQMNSLRAEDTAVYYCARGGSSWYPDSFDIWGQGTMVTVSSASTKGPSVFPLAPSSRSTSESTAALGCLVKDYFPEPVTVSWNSGALTSGVHTFPAVLQSSGLYSLSSVVTVPSSNFGTQTYTCNVDHKPSNTKVDKTVERKCCVECPPCPAPPVAGPSVFLFPPKPKDTLMISRTPEVTCVVVDVSHEDPEVKFNWYVDGVEVHNAKTKPREEQYNSTYRVVSVLTVLHQDWLNGKEYKCKVSNKALPSSIEKTISKAKGQPREPQVYTLPPSREEMTKNQVSLTCLVKGFYPSDIAVEWESNGQPENNYKTTPPVLDSDGSFFLYSKLTVDKSRWQQGNVFSCSVMHEALHNHYTQKSLSLSPGK
light: not shown
notes: also called mAb-CD73.4-IgG2.5G1.1f-KH; CD73.4-Vh-hHC-IgG2.5G1.1f-KH
B2: CD73.4-IgG2.3-plusTHT (antibody)
heavy: QVQLVESGGGVVQPGRSLRLSCAASGFTFSNYGMHWVRQAPGKGLEWVAVILYDGSNKYYPDSVKGRFTISRDNSKNTLYLQMNSLRAEDTAVYYCARGGSSWYPDSFDIWGQGTMVTVSSASTKGPSVFPLAPCSRSTSESTAALGCLVKDYFPEPVTVSWNSGALTSGVHTFPAVLQSSGLYSLSSVVTVPSSNFGTQTYTCNVDHKPSNTKVDKTVERKSCVETHTCPPCPAPPVAGPSVFLFPPKPKDTLMISRTPEVTCVVVDVSHEDPEVQFNWYVDGVEVHNAKTKPREEQFNSTFRVVSVLTVVHQDWLNGKEYKCKVSNKGLPAPIEKTISKTKGQPREPQVYTLPPSREEMTKNQVSLTCLVKGFYPSDIAVEWESNGQPENNYKTTPPMLDSDGSFFLYSKLTVDKSRWQQGNVFSCSVMHEALHNHYTQKSLSLSPGK
light: not shown
notes: also called mAb-CD73.4-IgG2.3-plusTHT; CD73.4-Vh-hHC-IgG2.3-plusTHT
B3: CD73.4-IgG2.3-plusGGG (antibody)
heavy: QVQLVESGGGVVQPGRSLRLSCAASGFTFSNYGMHWVRQAPGKGLEWVAVILYDGSNKYYPDSVKGRFTISRDNSKNTLYLQMNSLRAEDTAVYYCARGGSSWYPDSFDIWGQGTMVTVSSASTKGPSVFPLAPCSRSTSESTAALGCLVKDYFPEPVTVSWNSGALTSGVHTFPAVLQSSGLYSLSSVVTVPSSNFGTQTYTCNVDHKPSNTKVDKTVERKSCVEGGGCPPCPAPPVAGPSVFLFPPKPKDTLMISRTPEVTCVVVDVSHEDPEVQFNWYVDGVEVHNAKTKPREEQFNSTFRVVSVLTVVHQDWLNGKEYKCKVSNKGLPAPIEKTISKTKGQPREPQVYTLPPSREEMTKNQVSLTCLVKGFYPSDIAVEWESNGQPENNYKTTPPMLDSDGSFFLYSKLTVDKSRWQQGNVFSCSVMHEALHNHYTQKSLSLSPGK
light: not shown
notes: also called mAb-CD73.4-IgG2.3-plusGGG; CD73.4-Vh-hHC-IgG2.3-plusGGG
B4: CD73.4-IgG2.5-plusTHT (antibody)
heavy: QVQLVESGGGVVQPGRSLRLSCAASGFTFSNYGMHWVRQAPGKGLEWVAVILYDGSNKYYPDSVKGRFTISRDNSKNTLYLQMNSLRAEDTAVYYCARGGSSWYPDSFDIWGQGTMVTVSSASTKGPSVFPLAPSSRSTSESTAALGCLVKDYFPEPVTVSWNSGALTSGVHTFPAVLQSSGLYSLSSVVTVPSSNFGTQTYTCNVDHKPSNTKVDKTVERKCCVETHTCPPCPAPPVAGPSVFLFPPKPKDTLMISRTPEVTCVVVDVSHEDPEVQFNWYVDGVEVHNAKTKPREEQFNSTFRVVSVLTVVHQDWLNGKEYKCKVSNKGLPAPIEKTISKTKGQPREPQVYTLPPSREEMTKNQVSLTCLVKGFYPSDIAVEWESNGQPENNYKTTPPMLDSDGSFFLYSKLTVDKSRWQQGNVFSCSVMHEALHNHYTQKSLSLSPGK
light: not shown
notes: also called mAb-CD73.4-IgG2.5plusTHT/LC; CD73.4-Vh-hHC-IgG2.5plusTHT/LC

Experiments:
[1] = biological target: T1, human CD73 on human tumor cell lines; assay: cell-based or functional assay
[2] = biological target: T2, full length extracellular domain of …; assay: SEC, 1:1 molar mix 5.5 uM each
Experimental: The oligomeric state of CD73/antibody complexes were examined by size-exclusion chromatography coupled to an in-line multi-angle light scattering detector (SEC-MALS). Isocratic separations were performed on a Shodex PROTEIN KW-803 column connected to an Prominence Shimadzu UFLC in buffer containing 200 mM K₂HPO₄, 150 mM NaCl, pH 6.8, containing 0.02% Na azide (0.1 μm filtered) running at 0.5 mL/min. Samples were injected onto the column using a SIL-20AC Prominence Shimadzu autosampler, and data were obtained from three online detectors connected in series: a Prominence SPD-20AD diode array UV/vis spectrophotometer followed by a Wyatt miniDAWN™ TREOS Multi-Angle Light Scattering Detector then a Wyatt Optilab T-rEX Refractive Index Detector. Data were collected and analyzed using Astra (Wyatt) and Labsolutions (Shimadzu) software.
CD73.4 antibodies having the heavy chain constant regions set forth in Table 14 were also tested for formation of high molecular weight complexes by SEC-MALS and DLS experiments, as described in Example 3.

T1/2 internalization, Calu6 [1] [min]	T1/2 internalization, NCI-H292 [1] [min]	Ymax internalization, Calu6 [1] [%]	Ymax internalization, NCI-H292 [1] [%]	UV % Peak1 <12.9 min [2] [%]	UV % Peak4 16.7-19.3 min (free mAb) [2] [%]	UV % Peak5 >19.3 min [2] [%]	Binder
21.2	18	79.6	90.9				B1
21.3	17.6	81.2	91.4	30.6	33.7	3.2	B2
20.1	16.3	81.7	91.6				B3
17.2	15.4	80.2	89.6				B4
